One assay concerns the target σ70 (purified) (E. coli, UniProt P00579 1-613). Kind of assay: cryo-EM structure.
Assay [1] concerns the target RNA polymerase β subunit (in the purified holoenzyme) (E. coli, UniProt P0A8V2 1-1342). Kind of assay: cryo-EM structure.

Chain of RNA polymerase β subunit (in the purified holoenzyme) (P0A8V2 whole entry): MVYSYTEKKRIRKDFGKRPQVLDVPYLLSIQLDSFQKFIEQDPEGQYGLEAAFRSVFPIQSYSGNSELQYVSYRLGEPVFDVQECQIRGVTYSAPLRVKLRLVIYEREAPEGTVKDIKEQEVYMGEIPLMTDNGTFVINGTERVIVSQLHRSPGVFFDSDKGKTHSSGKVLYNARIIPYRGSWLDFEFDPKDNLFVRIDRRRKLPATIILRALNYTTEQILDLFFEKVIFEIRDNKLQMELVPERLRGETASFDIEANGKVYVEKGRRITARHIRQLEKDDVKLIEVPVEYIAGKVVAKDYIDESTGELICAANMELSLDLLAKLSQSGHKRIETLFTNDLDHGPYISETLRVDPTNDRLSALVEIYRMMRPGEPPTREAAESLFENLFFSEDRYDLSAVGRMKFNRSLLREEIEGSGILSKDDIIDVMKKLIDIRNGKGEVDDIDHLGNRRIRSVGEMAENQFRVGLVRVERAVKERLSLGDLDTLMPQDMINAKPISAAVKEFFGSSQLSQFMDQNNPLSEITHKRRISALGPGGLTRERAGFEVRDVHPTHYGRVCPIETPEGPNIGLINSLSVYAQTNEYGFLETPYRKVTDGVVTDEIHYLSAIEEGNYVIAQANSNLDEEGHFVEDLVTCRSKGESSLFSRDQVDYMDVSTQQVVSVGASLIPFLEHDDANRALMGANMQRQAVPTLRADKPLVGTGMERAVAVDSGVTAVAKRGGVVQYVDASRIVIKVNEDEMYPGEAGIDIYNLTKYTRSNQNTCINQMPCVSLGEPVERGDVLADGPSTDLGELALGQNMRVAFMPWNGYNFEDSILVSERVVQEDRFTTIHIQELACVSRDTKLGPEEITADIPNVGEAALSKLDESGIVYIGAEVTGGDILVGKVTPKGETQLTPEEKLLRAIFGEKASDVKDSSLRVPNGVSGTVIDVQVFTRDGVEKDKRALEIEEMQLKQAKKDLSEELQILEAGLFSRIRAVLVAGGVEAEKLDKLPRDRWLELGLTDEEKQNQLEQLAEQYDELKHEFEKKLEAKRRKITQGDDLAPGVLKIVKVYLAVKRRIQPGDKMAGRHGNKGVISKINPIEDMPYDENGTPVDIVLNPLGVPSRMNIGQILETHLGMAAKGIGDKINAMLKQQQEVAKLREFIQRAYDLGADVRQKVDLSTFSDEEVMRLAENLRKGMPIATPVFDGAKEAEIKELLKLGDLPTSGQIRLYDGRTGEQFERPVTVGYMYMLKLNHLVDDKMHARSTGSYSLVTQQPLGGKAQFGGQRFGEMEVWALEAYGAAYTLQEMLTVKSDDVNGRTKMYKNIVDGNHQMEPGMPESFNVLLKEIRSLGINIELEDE
Chain of σ70 (purified) (P00579 whole entry): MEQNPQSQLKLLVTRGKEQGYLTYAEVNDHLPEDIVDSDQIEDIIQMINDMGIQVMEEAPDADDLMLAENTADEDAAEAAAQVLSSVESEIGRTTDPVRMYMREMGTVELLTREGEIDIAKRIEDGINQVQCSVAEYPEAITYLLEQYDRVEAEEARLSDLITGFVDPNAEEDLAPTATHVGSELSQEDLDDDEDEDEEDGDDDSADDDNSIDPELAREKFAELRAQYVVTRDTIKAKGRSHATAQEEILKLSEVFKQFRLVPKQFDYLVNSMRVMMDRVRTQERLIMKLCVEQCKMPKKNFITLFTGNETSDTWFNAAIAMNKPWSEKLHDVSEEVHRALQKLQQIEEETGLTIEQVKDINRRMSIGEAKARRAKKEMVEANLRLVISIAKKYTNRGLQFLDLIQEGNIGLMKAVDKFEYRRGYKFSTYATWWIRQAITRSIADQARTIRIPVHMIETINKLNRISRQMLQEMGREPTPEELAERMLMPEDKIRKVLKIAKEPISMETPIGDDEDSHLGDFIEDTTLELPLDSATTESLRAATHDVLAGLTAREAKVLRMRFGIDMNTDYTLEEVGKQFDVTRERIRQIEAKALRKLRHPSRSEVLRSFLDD

B1: CedA (purified recombinant) (natural protein)
chain: MKKPLRQQNRQIISYVPRTEPAPPEHAIKMDSFRDVWMLRGKYVAFVLMGESFLRSPAFTVPESAQRWANQIRQEGEVTE
On to B1, for which the binding result (with σ70 (purified); in assay [1]) was “binds” in each case.
